Patent publication US9833497B2, “Human originated EGF domain proteins and use of the same” (CHENGDU SOURCEBIO LIMITED-LIABILITY COMPANY, priority 2013, dated 2017)

B1: PRT477 (protein, listed as Homo sapiens)
chain: LCSQALCSGHGRCVRRTSHPKALLLLNPASFSIQLTPGGGPLSLRGALSLGDQAQMAVEFKCRCYPGWQAPWCE
B2: PRT1182 (protein, listed as Homo sapiens)
chain: PREPCPGGACRVIDGCGSDAGPGMPGTAASGVCGPHGRCVSQPGGNFSCICDSGFTGTYCH
B3: PRT529 (protein, listed as Homo sapiens)
chain: CNCHGHASNCYYDPDVERQQASLNTQGIYAGGGVCINCQHNTAGVNCEQCAKGYYRPYGVPVDAPDGCIP
B4: PRT1459 (protein, listed as Homo sapiens)
chain: CQCNSHSKSCHYNISVDPFPFEHFRGGGGVCDDCEHNTTGRNCELCKDYFFRQVGADPSAIDVCKP
B5: PRT480 (protein, listed as Homo sapiens)
chain: VCSLHLCRNNGRCIRKMWNAPSYLHLNPASYHIEASEDGEFTVKGKASDTDLAVMADTFSCHCYQGYEGADCR
B6: PRT514 (protein, listed as Homo sapiens)
chain: CNCHGKAEECYYDENVARRNLSLNIRGKYIGGGVCINCTQNTAGINCETCTDGFFRPKGVSPNYPRPCQP
B7: PRT499 (protein, listed as Homo sapiens)
chain: CNCHNKAKDCYYDESVAKQKKSLNTAGQFRGGGVCINCLQNTMGINCETCIDGYYRPHKVSPYEDEPCRP
B8: PRT587 (protein, listed as Homo sapiens)
chain: CFCHGHADRCAPKPGASAGPSTAVQVHDVCVCQHNTAGPNCERCAPFYNNRPWRPAEGQDAHECQR
B9: PRT551 (protein, listed as Homo sapiens)
chain: CNCYGHATDCYYDPEVDRRRASQSLDGTYQGGGVCIDCQHHTTGVNCERCLPGFYRSPNHPLDSPHVCRR

Columns and labels:
Type in all cases: cell-based
E. coli DH5α = assay: Antibacterial activity: MIC and growth curve against E. coli DH5α in 96-well plate; settings: minimal inhibitory concentration against E. coli DH5α; 96-well plate, 5×10^5 CFU/mL, 37° C., judged after 8 h
Experimental: 1. E. coli DH5α was exemplified. E. coli DH5α was streaked and cultured on LB solid medium. Then, a typical clone was picked and inoculated into common LB liquid medium, cultured at 37° C. with shaking at 185 rpm until the logarithmic growth phase was reached (OD600 of about 0.5). The bacterial culture was centrifuged at 4000×g for 3 min, the supernatant was discarded, and the thalli were resuspended with fresh LB medium.
2. The above-mentioned bacterial suspension was diluted and inoculated into a 96-well plate with the total volume of 100 μL per well and a bacterial count of 5×10^5 CFU/mL.
3. The recombinant protein hF VII-EGF1 was added to the above-mentioned wells with the final protein concentration in the well of the highest protein concentration being 50 μg/mL. Basing on this final concentration, a two-fold serial dilution was performed till a protein concentration gradient consisting of 50, 25, and 12.5 μg/mL was set up. Three parallel wells were set up for each concentration in the gradient.
4. The above-mentioned 96-well plate was placed and cultured at 37° C. in shaking incubator shaking at 175 rpm. Samples were taken every 30 min, the absorbance values were determined at 600 nm wavelength under a ultra violet spectrophotometer, and an inhibition curve was plotted. […] The minimal inhibitory concentration MIC is defined as the lowest concentration of the recombinant protein at which there is no growth of the bacteria.
According to the experimental procedures in Example 14, the minimal inhibitory concentrations (MIC, μg/mL) of the other human-originated EGF domain proteins (PRT2 to PRT1498 in Table 1) for E. coli DH5α were determined.

E. coli BL21 = assay: MIC against Gram-negative bacteria: E. coli BL21; settings: 5×10^5 CFU/mL
Experimental: (§1) 1. Gram-negative bacteria, such as E. coli BL21, Pseudomonas aeruginosa, Klebsiella pneumonia, Enterobacter cloacae, Aeromonas hydrophila, Citrobacter diversus, Moraxella catarrhalis, Proteus mirabilis, Proteus vulgaris, Serratia marcescens, etc were streaked on solid LB medium and cultured respectively. Then, typical clones were picked, inoculated into common liquid LB medium respectively, and cultured at 37° C. with shaking at 185 rpm until the McFarland specific turbidity was 0.5. The bacterial culture of each of Gram-negative bacteria was centrifuged at 4000×g for 3 min, the supernatant was discarded, and the thalli were resuspended with fresh LB medium.
(§2) 2. The above-mentioned bacterial suspensions were diluted and inoculated into 96-well plates with the final concentration of the bacterial suspension being 5×10^5 CFU/mL per well.
(§3) 3. Each of the purified human-originated EGF domain proteins (PRT1 to PRT1498 in Table 1) was added to each of the above wells and subjected to two-fold serial dilution in concentration. Three parallel wells were set up for each concentration in the gradient.
(§4) 4. The above-mentioned 96-well plates were placed and cultured at 37° C. in shaking incubator shaking at 175 rpm. […] The minimal inhibitory concentration MIC is defined as the lowest concentration of the recombinant protein at which there is no growth of the bacteria.

Pseudomonas aeruginosa = assay: MIC against Gram-negative bacteria: Pseudomonas aeruginosa; settings: 5×10^5 CFU/mL
Experimental: as §1, §2, §3, §4

Klebsiella pneumonia = assay: MIC against Gram-negative bacteria: Klebsiella pneumonia; settings: 5×10^5 CFU/mL
Experimental: as §1, §2, §3, §4

Enterobacter cloacae = assay: MIC against Gram-negative bacteria: Enterobacter cloacae; settings: 5×10^5 CFU/mL
Experimental: as §1, §2, §3, §4

Aeromonas hydrophila = assay: MIC against Gram-negative bacteria: Aeromonas hydrophila; settings: 5×10^5 CFU/mL
Experimental: as §1, §2, §3, §4

Citrobacter diversus = assay: MIC against Gram-negative bacteria: Citrobacter diversus; settings: 5×10^5 CFU/mL
Experimental: as §1, §2, §3, §4

Moraxella catarrhalis = assay: MIC against Gram-negative bacteria: Moraxella catarrhalis; settings: 5×10^5 CFU/mL
Experimental: as §1, §2, §3, §4

Proteus mirabilis = assay: MIC against Gram-negative bacteria: Proteus mirabilis; settings: 5×10^5 CFU/mL
Experimental: as §1, §2, §3, §4

Proteus vulgaris = assay: MIC against Gram-negative bacteria: Proteus vulgaris; settings: 5×10^5 CFU/mL
Experimental: as §1, §2, §3, §4

Serratia marcescens = assay: MIC against Gram-negative bacteria: Serratia marcescens; settings: 5×10^5 CFU/mL
Experimental: as §1, §2, §3, §4

[1] = 10 h cultivation at 37° C., two-fold serial dilution

Molecule | MIC (E. coli DH5α) [µg/mL] | MIC against E. coli BL21 (E. coli BL21; 96-well plate, 37° C., 10 h) [µg/mL] | MIC against P. aeruginosa (Pseudomonas aeruginosa; 96-well plate, 37° C., 10 h) [µg/mL] | MIC against K. pneumonia (Klebsiella pneumonia; 96-well plate, 37° C., 10 h) [µg/mL] | MIC against E. cloacae (Enterobacter cloacae; 96-well plate, 37° C., 10 h) [µg/mL] | MIC against A. hydrophila (Aeromonas hydrophila; 96-well plate, 37° C., 10 h) [µg/mL] | MIC against C. diversus (Citrobacter diversus; 96-well plate, 37° C., 10 h) [µg/mL] | MIC against M. catarrhalis (Moraxella catarrhalis; 96-well plate, 37° C., 10 h) [µg/mL] | MIC against P. mirabilis (Proteus mirabilis; 96-well plate, 37° C., 10 h) [µg/mL] | MIC against P. vulgaris (Proteus vulgaris; 96-well plate, 37° C., 10 h) [µg/mL] | MIC against S. marcescens (Serratia marcescens; 96-well plate, 37° C., 10 h) [µg/mL] | further results
B1 | 12.5 | 50 | 12.5 | 50 | 25 | 12.5 | 25 | 50 | 25 | 12.5 | 25 | –
B2 | 12.5 | – | – | – | – | – | – | – | – | – | – | MIC E. coli BL21 (E. coli BL21; [1]): 25 µg/mL; MIC P. aeruginosa (Pseudomonas aeruginosa; [1]): 50 µg/mL; MIC K. pneumonia (Klebsiella pneumonia; [1]): 25 µg/mL; MIC E. cloacae (Enterobacter cloacae; [1]): 25 µg/mL; MIC A. hydrophila (Aeromonas hydrophila; [1]): 12.5 µg/mL; MIC C. diversus (Citrobacter diversus; [1]): 50 µg/mL; MIC M. catarrhalis (Moraxella catarrhalis; [1]): 12.5 µg/mL; MIC P. mirabilis (Proteus mirabilis; [1]): 50 µg/mL; MIC P. vulgaris (Proteus vulgaris; [1]): 12.5 µg/mL; MIC S. marcescens (Serratia marcescens; [1]): 25 µg/mL
B3 | 25 | 12.5 | 25 | 50 | 25 | 12.5 | 25 | 50 | 25 | 12.5 | 25 | –
B4 | 12.5 | – | – | – | – | – | – | – | – | – | – | MIC against E. coli BL21 (E. coli BL21; E. coli BL21, 10 h cultivation at 37° C.): 50 µg/mL; MIC against P. aeruginosa (Pseudomonas aeruginosa; Pseudomonas aeruginosa, 10 h cultivation at 37° C.): 25 µg/mL; MIC against K. pneumonia (Klebsiella pneumonia; Klebsiella pneumonia, 10 h cultivation at 37° C.): 25 µg/mL; MIC against E. cloacae (Enterobacter cloacae; Enterobacter cloacae, 10 h cultivation at 37° C.): 12.5 µg/mL; MIC against A. hydrophila (Aeromonas hydrophila; Aeromonas hydrophila, 10 h cultivation at 37° C.): 25 µg/mL; MIC against C. diversus (Citrobacter diversus; Citrobacter diversus, 10 h cultivation at 37° C.): 50 µg/mL; MIC against M. catarrhalis (Moraxella catarrhalis; Moraxella catarrhalis, 10 h cultivation at 37° C.): 12.5 µg/mL; MIC against P. mirabilis (Proteus mirabilis; Proteus mirabilis, 10 h cultivation at 37° C.): 25 µg/mL; MIC against P. vulgaris (Proteus vulgaris; Proteus vulgaris, 10 h cultivation at 37° C.): 50 µg/mL; MIC against S. marcescens (Serratia marcescens; Serratia marcescens, 10 h cultivation at 37° C.): 25 µg/mL
B5 | 12.5 | 25 | 50 | 25 | 12.5 | 25 | 50 | 25 | 12.5 | 25 | 50 | –
B6 | 50 | 12.5 | 50 | 25 | 12.5 | 25 | 12.5 | 25 | 12.5 | 25 | 12.5 | –
B7 | 12.5 | 25 | 100 | 25 | 12.5 | 25 | 12.5 | 25 | 50 | 25 | 12.5 | –
B8 | 25 | 50 | 25 | 12.5 | 25 | 50 | 25 | 12.5 | 25 | 50 | 25 | –
B9 | 12.5 | 25 | 50 | 25 | 12.5 | 25 | 50 | 25 | 12.5 | 25 | 50 | –
